Literature values, collected in paper PMC7692841.

Columns and labels:
[1] = target: BRCA1-A complex (Homo sapiens) (UniProt Q6UWZ7)
[2] = target: ABRAXAS phosphopeptide (Homo sapiens) (UniProt Q6UWZ7); test: ITC
[3] = target: ATRIP phosphopeptide (Homo sapiens) (UniProt Q8WXE1); test: ITC
[4] = target: BACH1 phosphopeptide (Homo sapiens) (UniProt Q9BX63); test: ITC
BACH1 phosphopeptide (Homo sapiens), sequence (Q9BX63 whole entry): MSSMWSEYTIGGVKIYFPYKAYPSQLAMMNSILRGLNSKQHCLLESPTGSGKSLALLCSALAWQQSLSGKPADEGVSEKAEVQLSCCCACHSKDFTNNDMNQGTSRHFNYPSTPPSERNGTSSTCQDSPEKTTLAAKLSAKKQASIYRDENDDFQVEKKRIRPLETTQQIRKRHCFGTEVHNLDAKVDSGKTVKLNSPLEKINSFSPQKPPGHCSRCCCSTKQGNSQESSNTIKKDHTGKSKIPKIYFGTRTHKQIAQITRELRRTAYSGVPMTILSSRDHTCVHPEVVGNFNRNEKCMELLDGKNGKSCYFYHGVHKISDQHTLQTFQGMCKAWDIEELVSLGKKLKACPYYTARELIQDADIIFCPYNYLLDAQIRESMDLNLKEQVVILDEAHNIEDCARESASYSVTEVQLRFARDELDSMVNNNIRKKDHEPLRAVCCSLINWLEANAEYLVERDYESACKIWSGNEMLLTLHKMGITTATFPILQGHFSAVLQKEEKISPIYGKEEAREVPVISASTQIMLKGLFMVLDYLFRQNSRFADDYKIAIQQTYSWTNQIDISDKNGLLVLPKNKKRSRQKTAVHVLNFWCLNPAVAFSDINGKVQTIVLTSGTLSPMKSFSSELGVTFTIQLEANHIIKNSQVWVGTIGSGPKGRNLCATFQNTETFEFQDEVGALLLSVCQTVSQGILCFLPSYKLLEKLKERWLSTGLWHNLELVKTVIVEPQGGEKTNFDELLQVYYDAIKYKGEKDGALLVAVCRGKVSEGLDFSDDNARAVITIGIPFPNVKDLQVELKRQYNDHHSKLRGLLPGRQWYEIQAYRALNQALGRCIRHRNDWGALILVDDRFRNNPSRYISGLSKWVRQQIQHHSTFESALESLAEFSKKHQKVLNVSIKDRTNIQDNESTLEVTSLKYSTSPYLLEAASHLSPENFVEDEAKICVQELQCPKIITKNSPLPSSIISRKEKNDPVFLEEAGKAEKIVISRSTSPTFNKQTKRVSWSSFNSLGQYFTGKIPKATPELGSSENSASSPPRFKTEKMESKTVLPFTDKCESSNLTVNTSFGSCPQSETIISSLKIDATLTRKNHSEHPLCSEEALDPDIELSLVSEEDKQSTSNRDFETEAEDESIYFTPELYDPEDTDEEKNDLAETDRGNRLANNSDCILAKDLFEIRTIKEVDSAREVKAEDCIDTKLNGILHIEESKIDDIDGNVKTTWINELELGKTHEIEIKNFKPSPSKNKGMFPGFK

BRCA1 BRCT, sequence (P38398 1646-1859): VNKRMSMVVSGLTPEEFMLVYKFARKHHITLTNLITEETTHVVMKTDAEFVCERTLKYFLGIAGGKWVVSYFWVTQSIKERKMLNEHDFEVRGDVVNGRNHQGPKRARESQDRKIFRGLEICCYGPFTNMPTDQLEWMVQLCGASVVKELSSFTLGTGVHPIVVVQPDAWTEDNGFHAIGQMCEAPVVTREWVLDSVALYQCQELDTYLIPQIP
ABRAXAS phosphopeptide (Homo sapiens), sequence (Q6UWZ7 whole entry): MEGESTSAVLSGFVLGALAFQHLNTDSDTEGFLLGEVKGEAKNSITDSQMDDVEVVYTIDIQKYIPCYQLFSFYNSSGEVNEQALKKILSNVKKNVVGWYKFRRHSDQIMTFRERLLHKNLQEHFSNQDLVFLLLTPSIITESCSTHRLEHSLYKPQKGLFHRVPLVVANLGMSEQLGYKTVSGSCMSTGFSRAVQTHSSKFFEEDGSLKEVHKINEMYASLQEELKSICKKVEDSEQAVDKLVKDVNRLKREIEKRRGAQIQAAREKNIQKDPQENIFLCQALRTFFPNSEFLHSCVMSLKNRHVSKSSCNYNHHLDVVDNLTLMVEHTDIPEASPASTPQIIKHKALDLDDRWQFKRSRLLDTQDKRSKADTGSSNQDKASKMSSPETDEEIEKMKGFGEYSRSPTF
ATRIP phosphopeptide (Homo sapiens), sequence (Q8WXE1 whole entry): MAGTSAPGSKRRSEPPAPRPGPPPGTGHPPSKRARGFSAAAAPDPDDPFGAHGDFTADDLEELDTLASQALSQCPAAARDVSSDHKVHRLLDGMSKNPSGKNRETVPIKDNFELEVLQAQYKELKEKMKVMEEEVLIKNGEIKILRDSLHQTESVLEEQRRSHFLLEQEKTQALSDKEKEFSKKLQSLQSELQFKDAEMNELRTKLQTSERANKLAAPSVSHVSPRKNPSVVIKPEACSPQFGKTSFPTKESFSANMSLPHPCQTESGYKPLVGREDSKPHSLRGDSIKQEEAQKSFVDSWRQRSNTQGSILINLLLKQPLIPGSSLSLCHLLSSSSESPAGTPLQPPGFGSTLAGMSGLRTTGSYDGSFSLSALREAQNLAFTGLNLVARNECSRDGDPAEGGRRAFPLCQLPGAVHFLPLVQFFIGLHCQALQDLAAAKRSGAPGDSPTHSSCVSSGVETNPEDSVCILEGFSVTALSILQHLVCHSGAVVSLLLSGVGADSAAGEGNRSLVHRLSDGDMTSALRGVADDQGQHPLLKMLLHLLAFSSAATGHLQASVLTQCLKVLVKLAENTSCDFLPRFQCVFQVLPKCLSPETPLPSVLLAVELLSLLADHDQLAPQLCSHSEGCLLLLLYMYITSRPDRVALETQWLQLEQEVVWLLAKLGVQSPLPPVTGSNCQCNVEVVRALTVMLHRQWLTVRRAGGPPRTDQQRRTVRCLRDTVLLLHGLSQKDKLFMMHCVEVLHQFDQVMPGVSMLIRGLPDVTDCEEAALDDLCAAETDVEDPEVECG

- Kd [1]: 80 nM
- Kd [2]: 1200 nM
- Kd [3]: 28200 nM
- Kd [4]: 700 nM
Substance: BRCA1 BRCT (from UniProt P38398)
